Among the data in patent publication US20200317768A1 (published 2020) are Kd values, retold here.

Positions count from the first letter of the chain named.

Sequences and labels used below:
B1: M103205H795-MY261/M103202L889-SK1 (antibody, human IgG1, kappa)
heavy: QVTLKESGPVLVKPTETLTLTCTVSGIDLSHDDISWVRQAPGKGLEWVGIISYAGSTYYASWAKGRLTISKDTSKNQVVLTMTNMDPVDTATYYCARGVPAYSHGGDLWGQGTLVTVSSASTKGPSVFPLAPSSKSTSGGTAALGCLVKDYFPEPVTVSWNSGALTSGVHTFPAVLQSSGLYSLSSVVTVPSSSLGTQTYICNVNHKPSNTKVDKKVEPKSCDKTHTCPPCPAPELLHGPSVFLFPPKPKDTLMISRTPEVTCVVVDVSDEDPEVKFNWYVDGVEVHNAKTKPREEQYNSTYRVVSVLTVLHQDWLNGKEYKCKVSNKALPKPIEKTISKAKGQPREPQVYTLPPSREEMTKNQVSLTCLVKGFYPSDIAVEWESNGQPENNYKTTPPVLDSDGSFFLYSKLTVDKSRWQQGNVFSCSVMHEALHNHYTQKSLSLSP
light: DIVMTQSPATLSLSPGERATLSCTSSQSVYHANWLSWFQQKPGQPPKLLIYWASTLAYGVPSRFSGSGSGTDFTLTISSLQPEDAATYYCAGGYGGGRYAFGQGTKVEIKRTVAAPSVFIFPPSDEQLKSGTASVVCLLNNFYPREAKVQWKVDNALQSGNSQESVTEQDSKDSTYSLSSTLTLSKADYEKHKVYACEVTHQGLSSPVTKSFNRGEC
notes: copies: 2 + 2
B2: M103205H795-MY262/M103202L889-SK1 (antibody, human IgG1, kappa)
heavy: B1 heavy with H238V
light: B1 light
notes: copies: 2 + 2
B3: M103205H795-MY263/M103202L889-SK1 (antibody, human IgG1, kappa)
heavy: B1 heavy with H238Q
light: B1 light
notes: copies: 2 + 2
B4: M103205H795-MY267/M103202L889-SK1 (antibody, human IgG1, kappa)
heavy: B1 heavy with H238I
light: B1 light
notes: copies: 2 + 2
B5: M103205H795-MY264/M103202L889-SK1 (antibody, human IgG1, kappa)
heavy: B1 heavy with H238L
light: B1 light
notes: copies: 2 + 2
B6: M103205H795-MY265/M103202L889-SK1 (antibody, human IgG1, kappa)
heavy: B1 heavy with H238T
light: B1 light
notes: copies: 2 + 2

The first experiment addresses T1, cynomolgus monkey FcγRIIb extracellular domain, His-tagged (cynomolgus monkey).
T1 construct: also called cyno FcgRIIb; cynoFcγRIIb; not shown: His-tag added to the C-terminus
T1 chain: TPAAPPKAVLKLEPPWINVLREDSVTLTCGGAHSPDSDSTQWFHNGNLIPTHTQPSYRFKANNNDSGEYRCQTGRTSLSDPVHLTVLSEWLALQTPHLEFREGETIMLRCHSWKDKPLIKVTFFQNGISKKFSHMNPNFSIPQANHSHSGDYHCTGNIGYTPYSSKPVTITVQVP
As to the kind of experiment: SPR (BIACORE), antibody captured, FcγR as analyte, 25°C. As to the method: (§1) The kinetic analysis of interactions between these antibodies and FcγR was carried out using BIACORE® T200 or BIACORE® 4000 (GE Healthcare). HBS-EP+ (GE Healthcare) was used as the running buffer, and the measurement temperature was set to 25° C. A chip produced by immobilizing Protein A. Protein A/G or mouse anti-human IgG kappa light chain (BD Biosciences) onto a Series S Sensor Chip CM4 or CM5 (GE Healthcare) by the amine-coupling method was used. […] After the measurement, the antibody captured on the chip was washed off by allowing reaction with 10 mM glycine-HCl, pH1.5 and 25 mM NaOH so that the chip was regenerated and used repeatedly. The sensorgrams obtained as measurement results were analyzed by the 1:1 Langmuir binding model using the BIACORE® Evaluation Software to calculate the binding rate constant ka (L/mol/s) and dissociation rate constant kd (l/s), and the dissociation constant KD (mol/L) was calculated from these values. […] Regarding such interactions, KD values were calculated using the following 1:1 binding model described in BIACORE® T100 Software Handbook BR1006-48 Edition AE.
(§2) The behavior of interacting molecules according to the 1:1 binding model on BIACORE® can be described by Equation 1: Req=C·R max/(KD+C)+RI, wherein, Req is a plot of steady-state binding levels to analyte concentration. C is concentration, RI is bulk refractive index contribution in the sample, and Rmax is analyte binding capacity of the surface. When this equation is rearranged, KD can be expressed as Equation 2: KD=C·Rmax/(Req−RI)−C. KD can be calculated by substituting the values of Rmax, RI, and C into Equation 1 or Equation 2. From the current measurement conditions, RI=0, C=2 μmol/L can be used.
Background: Surface plasmon resonance follows binding to a sensor surface in real time, without labels.
As to B1, the Kd came out at 1500 nM.

On to B2, for which the Kd amounted to 560 nM.

In turn, B3 came in with a Kd of 1000 nM.

On to B4, for which binding was put at a Kd of 840 nM.

For the molecule B5, the Kd was 2800 nM.

Take B6: the Kd came to 590 nM.

Another experiment has as its target T2, cynomolgus monkey FcγRIIIaS extracellular domain, His-tagged (cynomolgus monkey, UniProt A3RFZ7 21-206 (rhesus entry)).
T2 construct: also called cyno FcgRIIIaS; cynoFcγRIIIaS; not shown: His-tag added to the C-terminus
The description is as above. As to the method: as §1, §2
The molecule B1 yielded a dissociation constant (Kd) of 74 nM.

B2 came in with a dissociation constant (Kd) of 2800 nM.

Molecule B3 had a Kd of 780 nM.

Take B4: binding was put at a Kd of 2700 nM.

B5 returned an equilibrium dissociation constant (Kd) of 3700 nM.

For the molecule B6, binding was put at a Kd of 2000 nM.

The target in the next experiment is T3, cynomolgus monkey FcγRIIa3 extracellular domain, His-tagged (cynomolgus monkey).
T3 construct: also called cyno FcgRIIa3; cynoFcγRIIa3; not shown: His-tag added to the C-terminus
T3 chain: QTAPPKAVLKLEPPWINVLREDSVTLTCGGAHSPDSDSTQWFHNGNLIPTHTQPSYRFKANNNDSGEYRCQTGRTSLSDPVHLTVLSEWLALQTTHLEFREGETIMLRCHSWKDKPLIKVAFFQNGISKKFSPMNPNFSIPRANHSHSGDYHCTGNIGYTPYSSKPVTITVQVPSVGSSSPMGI
The experiment is described as above. As for the experimental part:
as §1, §2
As to B1, the Kd is 6500 nM.

Regarding B2, binding was characterised by a dissociation constant (Kd) of 8000 nM.

For B3, the Kd was determined as 7300 nM.

In the case of B4, the Kd worked out at 7300 nM.

Take B5: the Kd amounted to 16000 nM.

With B6, the Kd amounted to 4800 nM.

A further experiment deals with T4, human FcγRIIIaV extracellular domain, His-tagged (human, UniProt P08637 17-208).
T4 construct: also called human FcgRIIIaV; not shown: His-tag added to the C-terminus
T4 sequence (P08637 17-208 F176V): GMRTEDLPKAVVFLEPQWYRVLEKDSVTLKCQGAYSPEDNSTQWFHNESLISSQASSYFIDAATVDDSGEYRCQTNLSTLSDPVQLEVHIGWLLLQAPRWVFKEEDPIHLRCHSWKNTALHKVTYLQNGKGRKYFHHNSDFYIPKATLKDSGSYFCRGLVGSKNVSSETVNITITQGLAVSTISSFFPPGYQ
The experiment is described as above. As for the experimental part: as §1, §2
For B1, the Kd was 11000 nM.

For B2, the affinity, expressed as Kd, was 5000 nM.

The molecule B3 gave a dissociation constant Kd of 2300 nM.

In turn, B4 returned a Kd of 15000 nM.

B5 came in with a dissociation constant (Kd) of 64000 nM.

Take B6: the dissociation constant Kd came out at 54000 nM.

The next experiment has as its target T5, human FcγRIIaH extracellular domain, His-tagged (human, UniProt P12318 34-217).
T5 construct: also called human FcgRIIaH; FcγRIIa (type H); not shown: His-tag added to the C-terminus
T5 sequence: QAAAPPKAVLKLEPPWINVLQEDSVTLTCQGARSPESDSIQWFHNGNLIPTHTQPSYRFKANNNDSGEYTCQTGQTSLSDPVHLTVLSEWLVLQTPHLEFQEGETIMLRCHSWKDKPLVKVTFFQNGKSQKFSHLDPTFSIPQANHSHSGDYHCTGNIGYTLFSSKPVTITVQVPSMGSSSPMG
The description is as above. As to the method: as §1, §2
On to B1, for which the Kd worked out at 240 nM.

Regarding B2, the dissociation constant (Kd) stood at 140 nM.

B3 returned a Kd of 320 nM.

On to B4, for which the Kd was 200 nM.

B5: binding was put at a Kd of 1500 nM.

The molecule B6 gave a Kd of 210 nM.

By Kd is commonly meant the constant that tells how readily two partners part at equilibrium.
